Data set [1] deals with T1, hnRNP A1 RRM1 F23A (UniProt P09651 2-97, F23A). Briefly: ITC; 10 mM sodium phosphate pH 6.5, 10 mM 2-mercaptoethanol, no added salt, 30 C; RNA 5-10 uM in the cell; 1:1 fit. Conditions: one extra N-terminal Ala in PDB 5MPG (left out).
A further data set deals with hnRNP A1 RRM1 R55A (UniProt P09651 2-97, R55A). The description is as above. Conditions: one extra N-terminal Ala in PDB 5MPG (left out).
Data set [2] addresses T2, hnRNP A1 RRM1 D42A (UniProt P09651 2-97, D42A). The data set is described as above. Conditions: one extra N-terminal Ala in PDB 5MPG (left out).
Data set [3] has as its target hnRNP A1 UP1 r1R2 (Homo sapiens, UniProt P09651 2-196, F17A;F59A). The description is as above. Conditions: extra N-terminal Gly-Gly in PDB 2LYV (left out).
Data set [4] has as its target T3, hnRNP A1 RRM1 R92A (UniProt P09651 2-97, R92A). The description is as above. Conditions: one extra N-terminal Ala in PDB 5MPG (left out).
The target of data set [5] is hnRNP A1 UP1 R1r2 (Homo sapiens, UniProt P09651 2-196, F108A;F150A). Described as above. Conditions: extra N-terminal Gly-Gly in PDB 2LYV (left out).
Data set [6] deals with T4, hnRNP A1 RRM2 R140A (UniProt P09651 95-196, R140A). The data set is described as above. Conditions: none in PDB 5MPL.
Data set [7] has as its target T1, hnRNP A1 RRM1 F23A. Briefly: ITC; ITC: 10 mM NaPi pH 6.5, 10 mM 2-mercaptoethanol, 30 C, protein titrated into RNA; NMR: 10 mM NaPi pH 6.5, 1 mM DTT (303 K stated for UP1-R140A:ISS-N1-u25g). Conditions: protein: recombinant; single strand.
For another data set, the target named is hnRNP A1 RRM2 (UniProt P09651 95-196). Described as above. Conditions: protein: recombinant; single strand.
Data set [8] concerns the target T5, hnRNP A1 RRM2 E176Q (UniProt P09651 95-196, E176Q). The data set is described as above. Conditions: protein: recombinant; single strand.
The target of data set [9] is UP1 r1R2 (UniProt P09651 1-196, F17A;F59A). The description is as above. The note with it: protein: recombinant; single strand.
The target in data set [10] is T2, hnRNP A1 RRM1 D42A. Described as above. The note with it: protein: recombinant; single strand.
Data set [11] deals with UP1 R1r2 (UniProt P09651 1-196, F108A;F150A). The description is as above. The note with it: protein: recombinant; single strand.
Data set [12] concerns the target T4, hnRNP A1 RRM2 R140A. The data set is described as above. The note with it: protein: recombinant; single strand.
Data set [13] addresses T6, hnRNP A1 RRM1 (UniProt P09651 2-97). Described as above. The note with it: protein: recombinant; single strand.
The target in data set [14] is T3, hnRNP A1 RRM1 R92A. Briefly: ITC; range, no saturation; ITC: 10 mM NaPi pH 6.5, 10 mM 2-mercaptoethanol, 30 C, protein titrated into RNA; NMR: 10 mM NaPi pH 6.5, 1 mM DTT (303 K stated for UP1-R140A:ISS-N1-u25g). The note with it: protein: recombinant; single strand.
The target in data set [15] is T6, hnRNP A1 RRM1. In words: ITC; first listed measurement; ITC: 10 mM NaPi pH 6.5, 10 mM 2-mercaptoethanol, 30 C, protein titrated into RNA; NMR: 10 mM NaPi pH 6.5, 1 mM DTT (303 K stated for UP1-R140A:ISS-N1-u25g). The note with it: protein: recombinant; single strand.
Data set [16] has as its target T1, hnRNP A1 RRM1 F23A. Briefly: ITC; second listed measurement; ITC: 10 mM NaPi pH 6.5, 10 mM 2-mercaptoethanol, 30 C, protein titrated into RNA; NMR: 10 mM NaPi pH 6.5, 1 mM DTT (303 K stated for UP1-R140A:ISS-N1-u25g). The note with it: protein: recombinant; single strand.
Data set [17] deals with T5, hnRNP A1 RRM2 E176Q. Briefly: ITC; 10 mM sodium phosphate pH 6.5, 10 mM 2-mercaptoethanol, no added salt, 30 C; RNA 5-10 uM in the cell; 1:1 fit. The note with it: none in PDB 5MPL.
Data set [18] addresses T7, hnRNP A1 RRM2 M186A (UniProt P09651 95-196, M186A). Described as above. The note with it: none in PDB 5MPL.
For data set [19], the target named is T6, hnRNP A1 RRM1. The description is as above. The note with it: one extra N-terminal Ala in PDB 5MPG (left out).
In data set [20] the target is T7, hnRNP A1 RRM2 M186A. Briefly: ITC; ITC: 10 mM NaPi pH 6.5, 10 mM 2-mercaptoethanol, 30 C, protein titrated into RNA; NMR: 10 mM NaPi pH 6.5, 1 mM DTT (303 K stated for UP1-R140A:ISS-N1-u25g). Conditions: protein: recombinant; single strand.
The target in a further data set is hnRNP A1 RRM2 Y167F (UniProt P09651 95-196, Y167F). The description is as above. The note with it: protein: recombinant; single strand.
Data set [21] deals with T2, hnRNP A1 RRM1 D42A. In words: ITC; range, no saturation; ITC: 10 mM NaPi pH 6.5, 10 mM 2-mercaptoethanol, 30 C, protein titrated into RNA; NMR: 10 mM NaPi pH 6.5, 1 mM DTT (303 K stated for UP1-R140A:ISS-N1-u25g). Conditions: protein: recombinant; single strand.
Data set [22] has as its target T6, hnRNP A1 RRM1. The data set is described as above. Conditions: protein: recombinant; single strand.

T6 sequence (P09651 2-97): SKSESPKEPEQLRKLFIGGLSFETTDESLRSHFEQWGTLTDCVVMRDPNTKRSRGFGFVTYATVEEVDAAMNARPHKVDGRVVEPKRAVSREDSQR
T3 sequence (P09651 2-97 R92A): as the sequence (P09651 2-97) above, with R91A counted along it
T2 sequence (P09651 2-97 D42A): as the sequence (P09651 2-97) above, with D41A counted along it
T5 sequence (P09651 95-196 E176Q): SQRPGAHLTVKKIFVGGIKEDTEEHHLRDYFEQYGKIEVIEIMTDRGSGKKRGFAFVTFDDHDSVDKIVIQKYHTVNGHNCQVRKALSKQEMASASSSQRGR
T4 sequence (P09651 95-196 R140A): as the sequence (P09651 95-196 E176Q) above, with R46A, Q82E counted along it
T1 sequence (P09651 2-97 F23A): as the sequence (P09651 2-97) above, with F22A counted along it
hnRNP A1 UP1 r1R2, sequence (P09651 2-196 F17A/F59A): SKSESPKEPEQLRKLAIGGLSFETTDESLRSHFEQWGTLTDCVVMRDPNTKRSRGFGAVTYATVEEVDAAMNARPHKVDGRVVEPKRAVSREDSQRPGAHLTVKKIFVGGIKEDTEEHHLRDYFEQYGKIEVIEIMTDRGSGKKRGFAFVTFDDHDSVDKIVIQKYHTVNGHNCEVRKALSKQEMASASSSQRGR
T7 sequence (P09651 95-196 M186A): as the sequence (P09651 95-196 E176Q) above, with Q82E, M92A counted along it
hnRNP A1 UP1 R1r2, sequence (P09651 2-196 F108A/F150A): as the sequence (P09651 2-196 F17A/F59A) above, with A16F, A58F, F107A, F149A counted along it
UP1 r1R2, sequence (P09651 1-196 F17A/F59A): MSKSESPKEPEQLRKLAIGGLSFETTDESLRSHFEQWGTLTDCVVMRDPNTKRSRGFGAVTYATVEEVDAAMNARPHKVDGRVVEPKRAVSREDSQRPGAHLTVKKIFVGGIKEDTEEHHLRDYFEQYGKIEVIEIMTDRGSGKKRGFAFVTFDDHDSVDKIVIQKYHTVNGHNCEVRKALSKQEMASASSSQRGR
hnRNP A1 RRM2, sequence (P09651 95-196): as the sequence (P09651 95-196 E176Q) above, with Q82E counted along it
UP1 R1r2, sequence (P09651 1-196 F108A/F150A): as the sequence (P09651 1-196 F17A/F59A) above, with A17F, A59F, F108A, F150A counted along it
hnRNP A1 RRM2 Y167F, sequence (P09651 95-196 Y167F): as the sequence (P09651 95-196 E176Q) above, with Y73F, Q82E counted along it
hnRNP A1 RRM1 R55A, sequence (P09651 2-97 R55A): as the sequence (P09651 2-97) above, with R54A counted along it

On to UUAGGUC (ssRNA), for which the Kd with hnRNP A1 RRM1 F23A [1] was 209 ± 13 nM; in the data set with hnRNP A1 RRM1 R55A, > 10 µM; in the data set with hnRNP A1 RRM1 D42A [2], 787 ± 42 nM; with hnRNP A1 UP1 r1R2 [3] it was 56.2 ± 4 nM; with hnRNP A1 RRM1 R92A [4] it was ~2850 nM; with hnRNP A1 UP1 R1r2 [5], 45 ± 2 nM. Besides, the dissociation constant Kd worked out at 195 ± 12 nM with hnRNP A1 RRM2 R140A [6]; 225 ± 13 nM in the data set with hnRNP A1 RRM1 F23A [7]; 64 ± 8 nM in the data set with hnRNP A1 RRM2; 116 ± 39 nM with hnRNP A1 RRM2 E176Q [8]; 56 ± 4 nM in the data set with UP1 r1R2 [9]; 787 ± 42 nM in the data set with hnRNP A1 RRM1 D42A [10]. Further, the Kd in the data set with UP1 R1r2 [11] is 47 ± 2 nM; with hnRNP A1 RRM2 R140A [12] it was 195 ± 12 nM; with hnRNP A1 RRM1 [13], 288 ± 16 nM; with hnRNP A1 RRM1 R92A [14] it was ~2240 nM; with hnRNP A1 RRM1 [15] it was 292 ± 17 nM; with hnRNP A1 RRM1 F23A [16], 193 ± 11 nM.
For the molecule UUAGUU (ssRNA), the dissociation constant (Kd) is 286 ± 12 nM with hnRNP A1 RRM2 E176Q [17]; 253 ± 15 nM in the data set with hnRNP A1 RRM2 M186A [18]; ~2690 nM in the data set with hnRNP A1 RRM1 D42A [2]; 142 ± 9 nM with hnRNP A1 UP1 r1R2 [3]; > 10000 nM in the data set with hnRNP A1 RRM1 R92A [4]; 105 ± 8 nM in the data set with hnRNP A1 UP1 R1r2 [5]. Further, the dissociation constant Kd in the data set with hnRNP A1 RRM2 R140A [6] was 433 ± 26 nM; with hnRNP A1 RRM1 [19] it was ~5.99 µM; in the data set with hnRNP A1 RRM2, 125 ± 9 nM; with hnRNP A1 RRM2 E176Q [8], 286 ± 12 nM; in the data set with UP1 r1R2 [9], 142 ± 9 nM; with hnRNP A1 RRM2 M186A [20] it was 253 ± 15 nM. Further, the equilibrium dissociation constant (Kd) in the data set with hnRNP A1 RRM2 Y167F is 118 ± 9 nM; with hnRNP A1 RRM2 R140A [12], 433 ± 26 nM; in the data set with hnRNP A1 RRM1 D42A [21], ~2240 nM; with hnRNP A1 RRM1 [22] it was ~5.2 µM.

Values taken from PMC5503513, “Tandem hnRNP A1 RNA recognition motifs act in concert to repress the splicing of survival motor neuron exon 7”.
